The text below walks through data of the RNAGym collection of RNA variant scans (doi:10.1073/pnas.2313332121).

Variants at the floor of the assay were thinned out. A value given as a limit tells only on which side of the number the result lay.

B1: TPR 5TU (parent)
chain: GGAUCUUCUCGAUCUAACAAAAAAGACAAAUCUGCCACAAAGCUUGAGAGCAUCUUCGGAUGCAGAGGCGGCAGCCUUCGGUGGCGCGAUAGCGCCAACGUUCUCAACUAUGACACGCAAAACGCGUGCUCCGUUGAAUGGAGUUUAUCAUG

The variants in the series derive from B1. Kind of series: polymerase ribozyme fitness, log enrichment relative to wild type (log ratio); higher = more active; in vitro selection for triplet polymerase activity. In outline: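 To select mutant libraries of each subunit of a heterodimeric triplet polymerase ribozyme, built by PCR and transcribed, each was annealed with a biotinylated primer, partner subunit and triplets, then incubated frozen at −7 °C. Extended constructs were gel-excised, captured on streptavidin beads and amplified by RT-PCR, in one round carried out in triplicate. Illumina sequencing of input and output libraries kept genotypes with ≥10 input reads and ≥1 read per output. Fitness is the base-2 logarithm of genotype enrichment relative to wild-type enrichment, from inverse-variance-weighted replicate averages.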
As to A19U C123U, the “polymerase ribozyme fitness (log ratio)” value is -0.609.

As to A19U G34U C51U U53C G81A G86U G92A C96U A98G, the “polymerase ribozyme fitness (log ratio)” value was ≤ -4.2.

On to A19U C51U G58C C85U A91U C114U C118U, for which the “polymerase ribozyme fitness (log ratio)” value was ≤ -4.2.

Turning to A19G U44C U56A C57U C85U C95G, the “polymerase ribozyme fitness (log ratio)” value is ≤ -4.2.

For the variant A19U C63U C96U C105G C116A, the “polymerase ribozyme fitness (log ratio)” value is -2.98.

A19U A20G A66G G80A C87A A107G A110C: the “polymerase ribozyme fitness (log ratio)” value was ≤ -4.2.

In the case of A19U C76U C131U, the “polymerase ribozyme fitness (log ratio)” value came to 0.231.

Turning to A19G U82G G94A C96U A97U G124U, the “polymerase ribozyme fitness (log ratio)” value was -2.53.

A19U C27A A91U G94U G126U G141A G143C: the “polymerase ribozyme fitness (log ratio)” value was ≤ -4.2.

With A20C A21U A23C C51A C123A A138U, the “polymerase ribozyme fitness (log ratio)” value was ≤ -4.2.

Take A19G U82G G124A G140C: the “polymerase ribozyme fitness (log ratio)” value was -3.62.

For A19U A40G U101G, the “polymerase ribozyme fitness (log ratio)” value was -3.45.

Turning to A19U U45G, the “polymerase ribozyme fitness (log ratio)” value was -0.38.

As to A19U C87U A121C A147U, the “polymerase ribozyme fitness (log ratio)” value worked out at 0.743.

As to A19U A20C G59A A89U C95U G126C, the “polymerase ribozyme fitness (log ratio)” value was -0.274.

In the case of A19U A40C G81C C96G, the “polymerase ribozyme fitness (log ratio)” value is -1.25.

On to A19U C96U, for which the “polymerase ribozyme fitness (log ratio)” value was -0.369.

On to A19U C96A, for which the “polymerase ribozyme fitness (log ratio)” value was -0.531.

With A19U A22C U55G A64C A73G A91C U144A, the “polymerase ribozyme fitness (log ratio)” value was ≤ -4.2.

As for A19U C79A, the “polymerase ribozyme fitness (log ratio)” value was ≤ -4.2.

As to A19U A29U A39G U44G C85U G143U, the “polymerase ribozyme fitness (log ratio)” value is ≤ -4.2.

In the case of A19U G46U A52U, the “polymerase ribozyme fitness (log ratio)” value was ≤ -4.2.

Regarding A19G U33C A49C C54U G81A C87U, the “polymerase ribozyme fitness (log ratio)” value is ≤ -4.2.

Consider A19U G48A C116G U127G, for which the “polymerase ribozyme fitness (log ratio)” value is ≤ -4.2.

Take A19U C32A G84A G128U C131U A137G: the “polymerase ribozyme fitness (log ratio)” value is -3.73.

As for A19U A21U G86A C103U, the “polymerase ribozyme fitness (log ratio)” value is -2.31.

Turning to A19U G59C A89U G92C A121G, the “polymerase ribozyme fitness (log ratio)” value was -2.25.

With A19U C131A, the “polymerase ribozyme fitness (log ratio)” value was -1.75.

Regarding A19U C87G, the “polymerase ribozyme fitness (log ratio)” value is -4.17.

For A19U A49G C57A A60U C116U, the “polymerase ribozyme fitness (log ratio)” value was -2.27.

As to A19U A30C C95G, the “polymerase ribozyme fitness (log ratio)” value is ≤ -4.2.

On to A19G G50A, for which the “polymerase ribozyme fitness (log ratio)” value was -2.14.

For A19G U109G U139C U144C U148C, the “polymerase ribozyme fitness (log ratio)” value is -4.14.

In the case of A19U C57G, the “polymerase ribozyme fitness (log ratio)” value is -1.75.

On to A19U A28U G67C U82A C87A A122C U127C U145C, for which the “polymerase ribozyme fitness (log ratio)” value is ≤ -4.2.

In the case of A19U A47C U55G C87U G92U U101C, the “polymerase ribozyme fitness (log ratio)” value was -2.81.

A19U C96G A122U: the “polymerase ribozyme fitness (log ratio)” value was -0.445.

Regarding A19U U31C G46A C96U C131U U139G, the “polymerase ribozyme fitness (log ratio)” value was -2.16.

For A19U U31A G58C C63U G70C C95U C131G G152U, the “polymerase ribozyme fitness (log ratio)” value is ≤ -4.2.

Take A19U C35U: the “polymerase ribozyme fitness (log ratio)” value was -0.444.

Consider A19G G46C A107U A120C C129U, for which the “polymerase ribozyme fitness (log ratio)” value is ≤ -4.2.

Consider A19U A52U A97G, for which the “polymerase ribozyme fitness (log ratio)” value was -2.59.

In the case of A19G G83A A91C G94C C96G U134G, the “polymerase ribozyme fitness (log ratio)” value was ≤ -4.2.

For A19U A26C A30U C35U A41U G84A U135A, the “polymerase ribozyme fitness (log ratio)” value was ≤ -4.2.

A19U U56A A60G U104G G152A: the “polymerase ribozyme fitness (log ratio)” value was -2.82.

As for A19U G59U G86A G136A, the “polymerase ribozyme fitness (log ratio)” value is -2.01.

On to A19U C85G A121G, for which the “polymerase ribozyme fitness (log ratio)” value was -1.62.

Consider A19G U55A G68A G71A C103U, for which the “polymerase ribozyme fitness (log ratio)” value was ≤ -4.2.

For the variant A19G G126C, the “polymerase ribozyme fitness (log ratio)” value amounted to 0.693.

Regarding A19U G81A, the “polymerase ribozyme fitness (log ratio)” value is -0.839.

Take A19U C35U G42U U55G G67A C85G A97C C114G G140U: the “polymerase ribozyme fitness (log ratio)” value was ≤ -4.2.

With A19U C27U C36A G42C G86A G100C C118G, the “polymerase ribozyme fitness (log ratio)” value is ≤ -4.2.

On to A19G G50A G67A A91U C93A, for which the “polymerase ribozyme fitness (log ratio)” value is ≤ -4.2.

As for A19U A41C G58A C85G, the “polymerase ribozyme fitness (log ratio)” value was -2.71.

Regarding A19U C69G C96G U104G, the “polymerase ribozyme fitness (log ratio)” value is -1.98.

Turning to A19U A91G C93G U111A A137C, the “polymerase ribozyme fitness (log ratio)” value is ≤ -4.2.

As for A19U G48C C75U U77C C93G A122U A150C, the “polymerase ribozyme fitness (log ratio)” value was ≤ -4.2.

As for A19U C85G G92U C123U, the “polymerase ribozyme fitness (log ratio)” value is -2.54.

Take A19U G58A C105G: the “polymerase ribozyme fitness (log ratio)” value is -2.43.

In the case of A19U U33C C69U G126U, the “polymerase ribozyme fitness (log ratio)” value is -0.898.

A19U A28U A52G C105G G126C G141C U148A C149U A150C: the “polymerase ribozyme fitness (log ratio)” value is ≤ -4.2.

As for A19U A23G U90G, the “polymerase ribozyme fitness (log ratio)” value was -3.99.

In the case of A19U C38U A49C G58C C79U G88A A97C, the “polymerase ribozyme fitness (log ratio)” value was ≤ -4.2.

As for A19U G59A G83U C95A C132U G136U G141A, the “polymerase ribozyme fitness (log ratio)” value was ≤ -4.2.

As for A19U A20U C35U G59C U77C C118U C123U G141A U151G, the “polymerase ribozyme fitness (log ratio)” value is ≤ -4.2.

Take A19U A20C A26U C85U C118A C125U U134G G143A: the “polymerase ribozyme fitness (log ratio)” value is ≤ -4.2.

Turning to A19U C43G C54G A91G, the “polymerase ribozyme fitness (log ratio)” value was ≤ -4.2.

For the variant A19U A21U G94A, the “polymerase ribozyme fitness (log ratio)” value was -1.09.

Consider A19G G94A, for which the “polymerase ribozyme fitness (log ratio)” value was -1.06.

Turning to A19G G83C, the “polymerase ribozyme fitness (log ratio)” value is -1.11.

For A19G G59U C76A C96U, the “polymerase ribozyme fitness (log ratio)” value is -1.25.

On to A19U C95U, for which the “polymerase ribozyme fitness (log ratio)” value was -0.543.

Consider A19U U45G G83C U127A, for which the “polymerase ribozyme fitness (log ratio)” value is ≤ -4.2.

In the case of A19G C93A G140A, the “polymerase ribozyme fitness (log ratio)” value is ≤ -4.2.

With A19U G50A G71A A89G A137G, the “polymerase ribozyme fitness (log ratio)” value is ≤ -4.2.

Regarding A19U G81C C85U U145A, the “polymerase ribozyme fitness (log ratio)” value was -0.303.

As to A19U A47G U53G G67C C99U A142C A147C, the “polymerase ribozyme fitness (log ratio)” value was ≤ -4.2.

As to A19U C38A C54U C85A C108A, the “polymerase ribozyme fitness (log ratio)” value is ≤ -4.2.

Regarding A19G G59U, the “polymerase ribozyme fitness (log ratio)” value is -0.93.

Take A19U G25U C35A G65U A91U A120G G140A A142U: the “polymerase ribozyme fitness (log ratio)” value is -4.19.

Turning to A19G C93A, the “polymerase ribozyme fitness (log ratio)” value is -3.43.

As to A19U A49C C54A G62A A119G C125U U144A, the “polymerase ribozyme fitness (log ratio)” value was ≤ -4.2.

Regarding A19U C75U G81C C99G A119G G140U, the “polymerase ribozyme fitness (log ratio)” value was ≤ -4.2.

Consider A19U A21C, for which the “polymerase ribozyme fitness (log ratio)” value is -0.908.
